# Test results reported in patent US20180021429A1, “ANTICANCER AGENTS OR ANTIMETASTATIC AGENTS USING FSTL1 AND COMBINATION DRUG THEREOF” (PHARMA FOODS INTERNATIONAL CO., LTD., priority 2015, published 2018).
# B1: #10: chicken-mouse chimeric anti-FSTL1 antibody clone; variable regions SEQ ID NO: 811 (light), 813 (heavy) (antibody, V domains shown)
# VH: AVTLDESGGGLQTPGGALSLVCKASGFFFFRIYDMGWVRQAPGKGLEWVAGIDDYGRYTGYGSAVKGRATISRDNGQSTVRLQLNNLRAEDTGTYYCARGAGTGCNSAGCGAYAGSIDAWGHGTEVIVSS
# VL: ASTQPSSVSANPGETVKLTCSGGGSRYGWYQQKSPGSAPVTVIYYNDKRPSDIPSRFSGSKSGSTATLTITGVQAEDEAVYFCGGYDGSRDAGIFGAGTTLTVL
# modifications: mouse constant regions
# Columns and labels:
# [1] = system: C57/BL/6 mouse-derived bone marrow cells; experiment: MSC induction inhibition test using mouse bone marrow cells, FSTL1 stimulation (Example 27); format: cell-based; settings: FSTL1 20 ng/mL; antibody 10 μg/mL; 8 days; FIG. 21A
# Experimental: (§1) In this Example, the inhibitory activity of the anti-FSTL1 antibody was confirmed in an experimental system of mesenchymal stem cell induction while a FSTL1 inhibitory effect on MSC expansion induced not only by FSTL1 but by Snail+ tumor cells was also evaluated. For specific operation, each antibody (10 μg/mL) was added to systems in which C57/BL/6 mouse-derived bone marrow cells were stimulated with FSTL1 (20 ng/mL) or a culture supernatant of tumor cells. After culture for 8 days under stimulation, cell fraction CD45(−) cells (MSCs) containing MSCs at a high rate and CD45(−)CD146(+)ALCAM(+) cells (sMSCs) increasing in number in association with cancer metastasis were analyzed by flow cytometry in the same way as in Example 14, and the number of cells per culture system was counted. In this Example, mouse immunoglobulin manufactured by BioLegend, Inc. (#401408, Cone MG1-45) was used as a control antibody.
# [2] = system: C57/BL/6 mouse-derived spleen cells; experiment: Treg induction inhibition test using mouse spleen cells (Example 28); format: cell-based; settings: FSTL1 5 ng/ml; antibody 5 μg/mL; 3 days; FIG. 22
# Experimental: (§2) In this Example, the experiment was conducted according to Example 17. Specifically, 5 μg/mL of each antibody was added to a system in which C57/BL/6 mouse-derived spleen cells (2×10^6 cells) were stimulated with 5 ng/ml of FSTL1. After culture for 3 days, the percentage (%) of a Foxp3+CTLA4+ cell fraction in CD4+ T cells was analyzed as Treg cells by flow cytometry. Activity was compared with #6-55 used in the preceding studies.
# [3] = system: GFP+F10-snail+ tumor cells; experiment: In vivo drug efficacy of each anti-FSTL1 antibody clone, Snail+ tumor bone metastasis model (Example 32); design: species or system mouse
# Experimental: (§3) • Day 0: transplantation of GFP+F10-snail+ tumor cells (3×10^5 cells subcutaneously & 2×10^4 cells intravenously) • Day 4: intraperitoneal administration of the antibody (first dose, 10 mg/kg) • Day 7: intraperitoneal administration of the antibody (second dose, 10 mg/kg)
# (§4) Subcutaneous tumor was measured 4, 7, 10, 14, 17, 20, and 23 days after tumor cell transplantation.
# FSTL1 [4] = biological target: T1, FSTL1 (Homo sapiens, UniProt Q12841); experiment: Affinity of mouse chimeric antibodies, Biacore T-200 (Example 33); format: binding
# T1 sequence (Q12841 21-308): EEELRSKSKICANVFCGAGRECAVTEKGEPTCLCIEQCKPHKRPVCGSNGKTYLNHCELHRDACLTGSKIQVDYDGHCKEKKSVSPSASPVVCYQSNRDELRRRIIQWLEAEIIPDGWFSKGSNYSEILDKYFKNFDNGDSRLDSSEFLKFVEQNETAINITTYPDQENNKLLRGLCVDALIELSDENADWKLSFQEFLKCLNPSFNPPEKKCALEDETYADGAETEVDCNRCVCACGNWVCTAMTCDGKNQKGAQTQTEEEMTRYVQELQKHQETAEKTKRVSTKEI
# Experimental: (§5) The mouse chimeric antibodies were immobilized onto Sensor Chip CM5 (GE Healthcare Japan Corp., BR-1005-30) using Mouse Antibody Capture Kit (GE Healthcare Japan Corp., BR-1008-38), and their affinity for human FSTL1 was calculated using Biacore T-200 (GE Healthcare Japan Corp.).
# First, the exhaustive activity comparison of the obtained antibodies was conducted with the human FSTL1 concentration fixed to 10 μg/ml (Table 33-1, FIG. 28).
# Next, the KD values of clone #6-55, #7-34, and #13 presumed to have high affinity in FIG. 28 were calculated with the antigen concentration adjusted to 0 to 20 μg/ml (Table 35-2).
# [5] = system: C57/BL/6 mouse-derived bone marrow cells; experiment: MSC induction inhibition test using mouse bone marrow cells stimulated with FSTL1 (Example 27); format: cell-based; settings: FSTL1 20 ng/mL, antibody 10 μg/mL, 8 days; flow cytometry; FIG. 115A
# Experimental: as §1
# [6] = system: C57/BL/6 mouse-derived spleen cells; experiment: Treg induction inhibition test using mouse spleen cells stimulated with FSTL1 (Example 28); format: cell-based; settings: FSTL1 5 ng/ml, antibody 5 μg/mL, 3 days; FIG. 116
# Experimental: as §2
# [7] = system: GFP+F10-snail+ tumor cells; experiment: In vivo drug efficacy of each anti-FSTL1 antibody clone, GFP+F10-snail+ tumor model (Example 32); design: species or system mouse
# Experimental: as §3, §4
# FSTL1 [8] = biological target: T1, FSTL1; experiment: Biacore T-200 affinity of mouse chimeric antibodies for human FSTL1 (Example 33); format: binding
# Experimental: as §5
# First, the exhaustive activity comparison of the obtained antibodies was conducted with the human FSTL1 concentration fixed to 10 μg/ml (Table 33-1, FIG. 122).
# Next, the KD values of clone #6-55, #7-34, and #13 presumed to have high affinity in FIG. 122 were calculated with the antigen concentration adjusted to 0 to 20 μg/ml (Table 35-2).
# [9] = system: GFP+F10-snail+ tumor cells; experiment: In vivo drug efficacy of each anti-FSTL1 antibody clone, GFP+F10-snail+ tumor model (Example 32); design: species or system mouse; remark: listed apart in the source
# Experimental: as §3, §4
# Experiment Group (n=5) Control IgG (anti-DNP mAb) • #6-55 • #7 • #10 • #13 • #33
# • Day 0: transplantation of GFP+F10-snail+ tumor cells (3×10^5, cells subcutaneously & 2×10^4 cells intravenously) • Day 4: intraperitoneal administration of the antibody (first dose, 10 mg/kg) • Day 7: intraperitoneal administration of the antibody (second dose, 10 mg/kg)
# FSTL1 [10] = biological target: T1, FSTL1; experiment: Affinity of mouse chimeric antibodies for human FSTL1, Biacore T-200 (Example 33); format: binding
# Experimental: as §5
# First, the exhaustive activity comparison of the obtained antibodies was conducted with the human FSTL1 concentration fixed to 10 μg/ml (Table 33-1, FIG. 58).
# Next, the KD values of clone #6-55, #7-34, and #13 presumed to have high affinity in FIG. 58 were calculated with the antigen concentration adjusted to 0 to 20 μg/ml (Table 35-2).
# First, the exhaustive activity comparison of the obtained antibodies was conducted with the human FSTL1 concentration fixed to 10 μg/ml (Table 33-1, FIG. 90).
# Next, the KD values of clone #6-55, #7-34, and #13 presumed to have high affinity in FIG. 90 were calculated with the antigen concentration adjusted to 0 to 20 μg/ml (Table 35-2).
# FSTL1 [11] = biological target: T1, FSTL1; experiment: MSC induction inhibition test using mouse bone marrow cells stimulated with FSTL1 (Example 27); format: cell-based; design: purchased R&D Systems, Inc. 1694-FN-050; settings: FSTL1 20 ng/mL, antibody 10 μg/mL, 8 days
# Experimental: as §1, with “([…],” for “(#401408,”
# as §1
# FSTL1 [12] = biological target: T1, FSTL1; experiment: Treg induction inhibition test using mouse spleen cells stimulated with FSTL1 (Example 28); format: cell-based; design: purchased R&D Systems, Inc. 1694-FN-050; settings: FSTL1 5 ng/ml, antibody 5 μg/mL, 3 days
# Experimental: as §2
# as §2, with “[…]” for “#6-55”
molecule,measurement,setting,value
B1,"MSC induction inhibitory activity (CD45(−) MSCs, CD45(−)CD146(+)ALCAM(+) sMSCs)",[1],high MSC induction inhibitory activity equivalent to or higher than that of #6-55
same,Treg induction (Foxp3+CTLA4+ cell fraction in CD4+ T cells),[2],strong suppressive activity equal to or higher than that of #6-55
same,mouse survival period (life-prolonging effect),"[3]; intraperitoneal 10 mg/kg on days 4 and 7, FIG. 27",therapeutic effects equal to or higher than those of #6-55
same,comprehensive evaluation of antitumor activity,"[3]; mouse, in vivo",high antitumor activity exceeding that of #6-55
same,affinity in surface plasmon resonance assay,FSTL1 [4],strong affinity
same,MSC induction inhibitory effect,[5],strong inhibitory effect equivalent to or higher than that of #6-55
same,Treg induction (Foxp3+CTLA4+ fraction in CD4+ T cells),[6],strong suppressive activity equal to or higher than that of #6-55
same,mouse survival period (life-prolonging effect),"[7]; intraperitoneal 10 mg/kg on days 4 and 7, FIG. 121",therapeutic effects equal to or higher than those of #6-55
same,comprehensive evaluation of antitumor activity,[7]; stated as a possibility,high antitumor activity exceeding that of #6-55
same,affinity in an assay system using surface plasmon resonance,FSTL1 [8],strong affinity
same,mouse survival period (life-prolonging effect),"[9]; intraperitoneal 10 mg/kg on days 4 and 7, vs control antibody",therapeutic effects equal to or higher than those of #6-55
same,comprehensive evaluation of antitumor activity,"[9]; mouse, in vivo",high antitumor activity exceeding that of #6-55
same,affinity in an assay system using surface plasmon resonance,FSTL1 [10],strong affinity
same,"MSC induction inhibitory activity, reproducibility confirmed",FSTL1 [11],high MSC induction inhibitory activity equivalent to or higher than that of #6-55
same,"inhibitory effect in the MSC induction inhibition test (CD45(−) MSCs and sMSCs, flow cytometry)",FSTL1 [11],strong inhibitory effect equivalent to or higher than that of #6-55
same,Treg induction (Foxp3+CTLA4+ fraction in CD4+ T cells),FSTL1 [12],strong suppressive activity equal to or higher than that of #6-55
